Test results as given in publication PMC13233820, “Recruitment of Mre11 to recombination sites during meiosis” (Nature Communications, 2026).

Tests used:
HisSUMO-Mer2 (wild type) = test: Co-expression pull-down assay (NiNTA, anti-MBP immunoblot); type: binding, Saccharomyces cerevisiae; settings: co-expressed in E. coli
Protocol: Wild-type and mutant MBP-tagged Mre11-C49 and HisSUMO-tagged Mer2 were co-expressed in 50 mL of E. coli BL21 cultures and purified by affinity chromatography on Ni-NTA resin following a procedure similar to that described above. Briefly, cells were lysed by sonication and centrifuged at maximum speed for 30 mins at 4 °C on a table-top centrifuge. A small fraction of the supernatant was collected as ‘Input’ and the remainder was incubated with 120 µL Ni-NTA resin, pre-equilibrated with wash buffer (25 mM HEPES pH 7.5, 20 mM imidazole, 0.1 mM DTT, 0.1 mM PMSF, 10% glycerol), for 1 hour on a rotating wheel at 4 °C. The resin was washed twice with 2 ml in batch and five times with 2 ml on column before eluting with 250 µL of 500 mM imidazole in wash buffer. Input and elution fractions were separated by SDS-PAGE followed by immunoblotting with primary murine anti-MBP monoclonal antibody at 1:10,000 dilution (E8032S, NEB) and secondary goat anti-mouse IgG-HRP conjugated at 1:10,000 dilution (AP308P, Chemicon).

Mer2 = test: Yeast two-hybrid; type: binding, Saccharomyces cerevisiae; settings: SC-Leu-Ura-His + 25 mM 3-AT
Protocol: Bait and prey plasmids were co-transformed into yWL365 using the standard ‘LiAc’-based transformation and plated on SC-Leu-Ura selective media. At least four independent transformants were tested for Mer2-Mre11 interaction by spotting a dilution series on SC-Leu- Ura-His + 25 mM 3-AT (3-amino-1,2,4-triazole) and growing for 4-5 days at 30 °C.

B1: Mre11-LLK: Mre11 (or its C49 fragment) with LLK residues mutated to alanine (protein, UniProt P32829 1-692, looked up, variant L683A L686A K690A)
Double-strand break repair …: MDYPDPDTIRILITTDNHVGYNENDPITGDDSWKTFHEVMMLAKNNNVDMVVQSGDLFHVNKPSKKSLYQVLKTLRLCCMGDKPCELELLSDPSQVFHYDEFTNVNYEDPNFNISIPVFGISGNHDDASGDSLLCPMDILHATGLINHFGKVIESDKIKVVPLLFQKGSTKLALYGLAAVRDERLFRTFKDGGVTFEVPTMREGEWFNLMCVHQNHTGHTNTAFLPEQFLPDFLDMVIWGHEHECIPNLVHNPIKNFDVLQPGSSVATSLCEAEAQPKYVFILDIKYGEAPKMTPIPLETIRTFKMKSISLQDVPHLRPHDKDATSKYLIEQVEEMIRDANEETKQKLADDGEGDMVAELPKPLIRLRVDYSAPSNTQSPIDYQVENPRRFSNRFVGRVANGNNVVQFYKKRSPVTRSKKSGINGTSISDRDVEKLFSESGGELEVQTLVNDLLNKMQLSLLPEVGLNEAVKKFVDKDEKTALKEFISHEISNEVGILSTNEEFLRTDDAEEMKALIKQVKRANSVRPTPPKENDETNFAFNGNGLDSFRSSNREVRTGSPDITQSHVDNESRITHISQAESSKPTSKPKRVRTATKKKIPAFSDSTVISDAENELGDNNDAQDDVDIDENDIIMVSTDEEDASYGLLNGRKTKTKTRPAASTKTASRRGKGRASRTPKTDIAGSALAKARK
- Interaction with Mer2 in pulldown (in words) (HisSUMO-Mer2 (wild type)): strongly decreased the interaction
- Yeast two-hybrid interaction with Mer2 (in words) (Mer2): abolished the interaction
